Results on 1 substance are retold here after patent US7262289.

The target in the experiment is KCNQ2+KCNQ3 channel (human KCNQ2 co-expressed with human KCNQ3) (human) (UniProt O43526). As to the kind of experiment: cell-based or functional assay.
Sequence of KCNQ2+KCNQ3 channel (human KCNQ2 co-expressed with human KCNQ3) (human) (O43526 other isoform, or with tags, fused parts or gaps, chain 1 of 2): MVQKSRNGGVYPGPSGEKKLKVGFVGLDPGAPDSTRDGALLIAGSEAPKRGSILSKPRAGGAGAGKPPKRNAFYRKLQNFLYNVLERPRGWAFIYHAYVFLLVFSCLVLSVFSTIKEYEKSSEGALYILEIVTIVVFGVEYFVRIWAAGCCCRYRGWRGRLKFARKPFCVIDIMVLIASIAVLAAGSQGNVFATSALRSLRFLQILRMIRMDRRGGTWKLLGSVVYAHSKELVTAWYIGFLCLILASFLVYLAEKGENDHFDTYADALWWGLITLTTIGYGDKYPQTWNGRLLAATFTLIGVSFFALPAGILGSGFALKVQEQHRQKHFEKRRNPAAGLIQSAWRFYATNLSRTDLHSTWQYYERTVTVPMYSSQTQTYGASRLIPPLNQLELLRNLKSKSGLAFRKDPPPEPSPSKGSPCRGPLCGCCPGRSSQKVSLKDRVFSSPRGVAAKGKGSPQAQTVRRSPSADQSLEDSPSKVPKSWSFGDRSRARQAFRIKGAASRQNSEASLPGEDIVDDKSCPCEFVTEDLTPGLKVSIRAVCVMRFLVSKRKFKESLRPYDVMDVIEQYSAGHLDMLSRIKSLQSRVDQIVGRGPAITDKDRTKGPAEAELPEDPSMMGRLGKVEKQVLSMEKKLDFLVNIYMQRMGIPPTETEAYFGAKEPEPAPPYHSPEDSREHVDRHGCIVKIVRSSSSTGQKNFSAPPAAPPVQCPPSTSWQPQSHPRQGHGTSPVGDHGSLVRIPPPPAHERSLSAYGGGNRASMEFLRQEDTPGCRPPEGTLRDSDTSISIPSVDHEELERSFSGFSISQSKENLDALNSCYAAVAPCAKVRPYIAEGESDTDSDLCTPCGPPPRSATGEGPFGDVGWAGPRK
Sequence of KCNQ2+KCNQ3 channel (human KCNQ2 co-expressed with human KCNQ3) (human) (O43526 other isoform, or with tags, fused parts or gaps, chain 2 of 2): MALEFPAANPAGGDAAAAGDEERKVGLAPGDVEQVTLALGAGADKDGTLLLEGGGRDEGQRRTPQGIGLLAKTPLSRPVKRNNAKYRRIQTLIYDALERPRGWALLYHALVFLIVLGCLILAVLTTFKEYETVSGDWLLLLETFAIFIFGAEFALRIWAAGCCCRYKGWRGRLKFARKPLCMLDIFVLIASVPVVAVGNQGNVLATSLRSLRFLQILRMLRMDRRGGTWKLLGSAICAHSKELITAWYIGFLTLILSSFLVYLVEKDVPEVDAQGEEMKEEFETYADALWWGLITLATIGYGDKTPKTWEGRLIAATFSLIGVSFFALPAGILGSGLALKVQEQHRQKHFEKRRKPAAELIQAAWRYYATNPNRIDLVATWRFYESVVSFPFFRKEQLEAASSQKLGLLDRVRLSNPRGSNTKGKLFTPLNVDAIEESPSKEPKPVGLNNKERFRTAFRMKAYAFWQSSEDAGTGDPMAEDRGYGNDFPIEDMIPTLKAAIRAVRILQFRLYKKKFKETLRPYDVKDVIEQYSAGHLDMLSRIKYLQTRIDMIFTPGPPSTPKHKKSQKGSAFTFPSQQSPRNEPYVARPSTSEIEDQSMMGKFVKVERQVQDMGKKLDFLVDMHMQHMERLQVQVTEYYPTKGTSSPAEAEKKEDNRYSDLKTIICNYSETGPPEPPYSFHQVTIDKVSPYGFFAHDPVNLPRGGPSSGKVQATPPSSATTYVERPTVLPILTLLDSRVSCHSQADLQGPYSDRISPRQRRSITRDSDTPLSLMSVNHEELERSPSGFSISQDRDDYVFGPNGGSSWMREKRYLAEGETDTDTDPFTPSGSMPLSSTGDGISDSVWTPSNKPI

For KCNE1, the reduction of peak current amplitude at +30 mV in oocytes co-expressing KCNE1 was 62%.
